Laboratory results from patent US20080044360A1.
Bridge positions count the residues as written; N and C are the ends. Square brackets hold non-standard residues; d marks the D form. Primed or numbered codes have the meaning given here. Ends that are not written are not given here. Tyr(3-Cl) = N[C@@H](Cc1ccc(O)c(Cl)c1)C(=O)O; Gd^T″ = GdDTPA-thiourea; Dap = NC[C@H](N)C(=O)O

target: human collagen type I, acid soluble, extracted from placenta (Sigma C7774) (human) (UniProt P02452); experiment: dried collagen assay
Sequence (P02452 162-1218 limits assumed, chain 1 of 2): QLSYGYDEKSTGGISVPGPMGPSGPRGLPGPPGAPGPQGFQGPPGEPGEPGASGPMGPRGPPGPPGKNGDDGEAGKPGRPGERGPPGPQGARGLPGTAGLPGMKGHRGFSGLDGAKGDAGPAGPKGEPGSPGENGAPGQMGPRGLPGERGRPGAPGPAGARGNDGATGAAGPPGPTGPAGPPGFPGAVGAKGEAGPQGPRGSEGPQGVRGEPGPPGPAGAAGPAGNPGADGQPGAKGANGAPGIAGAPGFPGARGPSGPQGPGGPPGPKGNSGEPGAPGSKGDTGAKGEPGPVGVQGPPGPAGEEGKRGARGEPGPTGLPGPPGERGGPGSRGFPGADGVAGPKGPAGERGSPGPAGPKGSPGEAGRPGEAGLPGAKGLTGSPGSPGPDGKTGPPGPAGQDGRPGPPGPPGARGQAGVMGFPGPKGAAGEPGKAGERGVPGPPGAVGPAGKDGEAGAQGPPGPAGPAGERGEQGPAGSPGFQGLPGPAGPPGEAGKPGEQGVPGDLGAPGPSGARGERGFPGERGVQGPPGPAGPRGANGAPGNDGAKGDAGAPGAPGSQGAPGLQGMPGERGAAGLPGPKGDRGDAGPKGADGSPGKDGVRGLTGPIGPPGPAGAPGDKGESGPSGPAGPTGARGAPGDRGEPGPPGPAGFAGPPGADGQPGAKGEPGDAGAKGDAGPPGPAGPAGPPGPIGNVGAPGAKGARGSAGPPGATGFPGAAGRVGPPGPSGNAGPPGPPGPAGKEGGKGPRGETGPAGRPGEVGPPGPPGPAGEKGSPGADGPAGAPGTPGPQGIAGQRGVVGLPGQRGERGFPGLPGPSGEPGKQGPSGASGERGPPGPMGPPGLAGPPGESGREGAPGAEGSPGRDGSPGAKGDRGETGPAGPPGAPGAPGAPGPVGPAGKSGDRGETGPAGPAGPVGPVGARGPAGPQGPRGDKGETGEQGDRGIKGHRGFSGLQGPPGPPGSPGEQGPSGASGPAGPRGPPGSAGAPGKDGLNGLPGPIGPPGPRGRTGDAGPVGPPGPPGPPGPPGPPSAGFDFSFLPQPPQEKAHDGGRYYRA
Sequence (P08123 80-1119 limits assumed, chain 2 of 2, further chain): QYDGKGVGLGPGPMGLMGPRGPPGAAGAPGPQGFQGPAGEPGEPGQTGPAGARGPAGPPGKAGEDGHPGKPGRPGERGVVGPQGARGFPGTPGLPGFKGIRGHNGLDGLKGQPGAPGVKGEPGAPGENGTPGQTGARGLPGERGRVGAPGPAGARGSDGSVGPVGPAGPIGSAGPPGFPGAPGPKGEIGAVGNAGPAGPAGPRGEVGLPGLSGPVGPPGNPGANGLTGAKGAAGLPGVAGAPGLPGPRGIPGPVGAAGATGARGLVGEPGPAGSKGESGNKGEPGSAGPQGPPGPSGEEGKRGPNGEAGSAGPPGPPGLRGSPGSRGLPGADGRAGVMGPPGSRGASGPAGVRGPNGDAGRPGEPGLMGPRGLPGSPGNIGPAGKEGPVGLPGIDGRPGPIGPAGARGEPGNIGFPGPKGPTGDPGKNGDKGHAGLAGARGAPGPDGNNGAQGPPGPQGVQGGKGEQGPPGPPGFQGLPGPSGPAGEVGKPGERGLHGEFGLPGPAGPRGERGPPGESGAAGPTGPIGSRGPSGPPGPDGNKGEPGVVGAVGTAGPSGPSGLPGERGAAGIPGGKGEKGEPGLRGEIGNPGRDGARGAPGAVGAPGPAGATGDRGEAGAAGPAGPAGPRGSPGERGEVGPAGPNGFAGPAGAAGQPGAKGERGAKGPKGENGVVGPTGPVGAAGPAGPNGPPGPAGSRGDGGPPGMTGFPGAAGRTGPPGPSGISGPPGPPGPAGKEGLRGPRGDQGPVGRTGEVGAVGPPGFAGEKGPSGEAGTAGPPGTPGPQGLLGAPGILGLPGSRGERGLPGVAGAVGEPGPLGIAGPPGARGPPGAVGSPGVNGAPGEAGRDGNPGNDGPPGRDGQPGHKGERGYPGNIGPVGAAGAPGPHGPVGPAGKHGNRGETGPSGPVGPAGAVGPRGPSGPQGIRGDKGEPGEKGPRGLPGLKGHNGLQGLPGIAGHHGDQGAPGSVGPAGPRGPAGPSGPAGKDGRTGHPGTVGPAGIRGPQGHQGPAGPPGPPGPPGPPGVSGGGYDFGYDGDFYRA

Row | Binder | % bound
1 | {Gd^T″}-GQWHCT[dR]RFPHHYCLYG (disulfide 5-14 (inferred); not fully specified (C-terminus)) [Compound ID 900] | 4%
2 | {Gd^T″}-GQWHCTTDFPH[Dap]YCLYG (disulfide 5-14) [Compound ID 886] | 8%
3 | QWT[dC]SGDEYTWHCNYE (disulfide 4-13 (inferred); not fully specified (N-terminus, C-terminus); printed as QWTcSGDEYTWHCNYE) [SEQ ID NO 167] | 4%
4 | YHACYQAG[dC]WIW (disulfide 4-9 (inferred); not fully specified (C-terminus); printed as YHACYQAGcWIW) [SEQ ID NO 159] | 7%
5 | QWFCEMDEYGKWNCGMM (disulfide 4-14 (inferred)) [SEQ ID NO 81] | 3%
6 | SWSCGGDHNAWKCQYS (disulfide 4-13 (inferred)) [SEQ ID NO 36] | 7%
7 | GWQCSGDASVWNCDWI (disulfide 4-13 (inferred)) [SEQ ID NO 39] | 6%
8 | GWSCHGDAADWPCQWS (disulfide 4-13 (inferred)) [SEQ ID NO 38] | 6%
9 | PWWCHEMPSMCFGF (disulfide 4-11 (inferred)) [SEQ ID NO 3] | 2%
10 | SWHCFLENHHWMCSDH (disulfide 4-13 (inferred)) [SEQ ID NO 68] | 5%
11 | QWTCSGDEYTW[dH]CNYE (disulfide 4-13 (inferred); not fully specified (N-terminus); printed as QWTCSGDEYTWhCNYE) [SEQ ID NO 174] | 5%
12 | GWACNTTSKGDWECTNL (disulfide 4-14 (inferred)) [SEQ ID NO 83] | 3%
13 | SWYCNNGSYGQWHCEHR (disulfide 4-14 (inferred)) [SEQ ID NO 80] | 6%
14 | HWSCDLAMDNEWFCSTK (disulfide 4-14 (inferred)) [SEQ ID NO 84] | 3%
15 | FSECVWVNAYQCEYF (disulfide 4-12 (inferred)) [SEQ ID NO 113] | 3%
16 | KWECVHTKGEWYCETK (disulfide 4-13 (inferred)) [SEQ ID NO 65] | 7%
17 | {Gd^T″}-GQWHCTTRFPHH[dT]CLYG (disulfide 5-14 (inferred); not fully specified (C-terminus)) [Compound ID 905] | 6%
18 | GQWTCSGDEYTAHCNYE (disulfide 5-14 (inferred); not fully specified (C-terminus)) [SEQ ID NO 147] | 5%
19 | RWSCVLDADGWVCSDN (disulfide 4-13 (inferred)) [SEQ ID NO 66] | 6%
20 | LWNCHGTDANWKCVLN (disulfide 4-13 (inferred)) [SEQ ID NO 37] | 7%
21 | {Gd^T″}-GQWHCTTD[Tyr(3-Cl)]PHHYCLYG (disulfide 5-14 (inferred); not fully specified (C-terminus)) [Compound ID 895] | 7%
22 | {Gd^T″}-GQWHCTTRFPHH[dR]CLYG (disulfide 5-14 (inferred); not fully specified (C-terminus)) [Compound ID 902] | 7%
23 | YHACYQAGCYIY (disulfide 4-9 (inferred)) [SEQ ID NO 108] | 5%
24 | GWTCSQPGANVWNCTMQ (disulfide 4-14 (inferred)) [SEQ ID NO 85] | 3%
25 | {Gd^T″}-GQWHCT[dN]RFPHHYCLYG (disulfide 5-14 (inferred); not fully specified (C-terminus)) [Compound ID 897] | 4%
26 | GWSCHSMDMQWHCDFS (disulfide 4-13 (inferred)) [SEQ ID NO 67] | 5%
27 | LWTCSMDRNYDWVCGEK (disulfide 4-14 (inferred)) [SEQ ID NO 82] | 3%
28 | AKKCWYNDGGHLRCRTL (disulfide 4-14 (inferred)) [SEQ ID NO 99] | 3%
29 | WQVCADSPGVITYCYTY (disulfide 4-14 (inferred)) [SEQ ID NO 98] | 5%
30 | {Gd^T″}-GQWHCT[dS]RFPHHYCLYG (disulfide 5-14 (inferred); not fully specified (C-terminus)) [Compound ID 898] | 5%

target: rat collagen, acid soluble, type I, rat tail (Upstate 08-115) (rat) (UniProt P02454); experiment: dried collagen assay
Sequence (P02454 152-1207, chain 1 of 2): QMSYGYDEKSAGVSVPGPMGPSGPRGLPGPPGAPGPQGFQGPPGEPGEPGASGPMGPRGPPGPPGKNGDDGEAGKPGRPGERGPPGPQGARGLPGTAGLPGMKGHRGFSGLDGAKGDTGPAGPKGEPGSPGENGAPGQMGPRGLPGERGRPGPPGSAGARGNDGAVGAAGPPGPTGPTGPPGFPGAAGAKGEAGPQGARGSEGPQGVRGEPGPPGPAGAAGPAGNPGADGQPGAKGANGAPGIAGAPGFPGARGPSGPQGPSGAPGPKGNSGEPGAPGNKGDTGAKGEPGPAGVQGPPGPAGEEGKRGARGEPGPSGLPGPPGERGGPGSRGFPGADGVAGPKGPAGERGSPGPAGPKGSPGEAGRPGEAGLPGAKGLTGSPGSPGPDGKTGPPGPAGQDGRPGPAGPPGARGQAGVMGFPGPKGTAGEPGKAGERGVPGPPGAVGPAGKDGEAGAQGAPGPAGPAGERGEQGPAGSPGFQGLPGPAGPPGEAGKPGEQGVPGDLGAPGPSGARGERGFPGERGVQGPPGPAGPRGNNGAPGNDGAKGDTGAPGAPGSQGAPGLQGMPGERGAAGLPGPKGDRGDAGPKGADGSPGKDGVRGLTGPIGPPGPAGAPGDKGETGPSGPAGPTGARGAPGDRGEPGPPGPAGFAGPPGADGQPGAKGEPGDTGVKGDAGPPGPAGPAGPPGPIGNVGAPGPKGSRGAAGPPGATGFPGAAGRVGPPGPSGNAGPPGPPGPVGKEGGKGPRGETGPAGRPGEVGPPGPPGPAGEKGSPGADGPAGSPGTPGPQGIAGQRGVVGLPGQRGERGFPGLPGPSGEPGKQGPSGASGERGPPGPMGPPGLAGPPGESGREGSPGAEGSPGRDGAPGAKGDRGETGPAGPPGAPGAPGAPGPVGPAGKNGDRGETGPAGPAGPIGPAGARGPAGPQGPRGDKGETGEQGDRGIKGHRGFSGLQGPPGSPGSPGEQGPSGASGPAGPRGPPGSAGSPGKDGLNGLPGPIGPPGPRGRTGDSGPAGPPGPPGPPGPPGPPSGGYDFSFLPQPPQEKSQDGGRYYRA
Sequence (P02466 86-1125, chain 2 of 2, further chain): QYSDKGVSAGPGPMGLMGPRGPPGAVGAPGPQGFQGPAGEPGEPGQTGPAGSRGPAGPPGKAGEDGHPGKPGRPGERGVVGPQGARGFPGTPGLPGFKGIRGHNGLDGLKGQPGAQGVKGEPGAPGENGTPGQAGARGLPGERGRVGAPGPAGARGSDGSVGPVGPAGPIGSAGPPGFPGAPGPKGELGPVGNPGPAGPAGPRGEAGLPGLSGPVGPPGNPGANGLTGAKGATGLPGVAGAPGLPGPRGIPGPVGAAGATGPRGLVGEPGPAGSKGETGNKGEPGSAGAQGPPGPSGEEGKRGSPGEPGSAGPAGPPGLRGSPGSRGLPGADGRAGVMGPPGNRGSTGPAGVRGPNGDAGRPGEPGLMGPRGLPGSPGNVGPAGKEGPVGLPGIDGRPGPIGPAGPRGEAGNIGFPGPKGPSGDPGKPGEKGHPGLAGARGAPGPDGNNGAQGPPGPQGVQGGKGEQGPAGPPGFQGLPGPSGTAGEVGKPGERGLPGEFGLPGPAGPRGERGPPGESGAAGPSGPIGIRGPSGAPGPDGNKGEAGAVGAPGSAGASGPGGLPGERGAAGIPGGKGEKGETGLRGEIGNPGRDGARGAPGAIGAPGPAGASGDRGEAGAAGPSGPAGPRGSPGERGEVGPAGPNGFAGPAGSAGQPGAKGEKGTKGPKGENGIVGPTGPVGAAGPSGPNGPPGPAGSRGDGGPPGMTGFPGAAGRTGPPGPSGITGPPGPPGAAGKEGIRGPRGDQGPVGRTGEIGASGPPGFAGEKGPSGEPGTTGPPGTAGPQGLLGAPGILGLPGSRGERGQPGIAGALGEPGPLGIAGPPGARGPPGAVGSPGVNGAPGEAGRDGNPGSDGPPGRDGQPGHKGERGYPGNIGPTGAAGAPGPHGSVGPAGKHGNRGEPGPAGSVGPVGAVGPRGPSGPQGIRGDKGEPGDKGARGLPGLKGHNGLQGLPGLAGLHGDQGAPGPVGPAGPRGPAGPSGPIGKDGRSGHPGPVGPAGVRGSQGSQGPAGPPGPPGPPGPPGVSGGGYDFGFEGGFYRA

Row | Binder | % bound
31 | YHACYQAGCYIW (disulfide 4-9 (inferred)) [SEQ ID NO 107] | 6%
32 | {Gd^T″}-GQWTCSGDEYAWHCNY[dE] (disulfide 5-14 (inferred); not fully specified (C-terminus)) [Compound ID 832] | 4%
33 | GQWTCSADEYTWHCNYE (disulfide 5-14 (inferred)) [SEQ ID NO 142] | 6%
34 | QWTCSGDE[dY]TWHCNYE (disulfide 4-13 (inferred); not fully specified (N-terminus); printed as QWTCSGDEyTWHCNYE) [SEQ ID NO 171] | 6%
35 | QWTCSG[dD]EYTWHCNYE (disulfide 4-13 (inferred); not fully specified (N-terminus); printed as QWTCSGdEYTWHCNYE) [SEQ ID NO 169] | 4%
